Tested on: K4 kissing-loop RNA reporter
Experiment: apparent KD of K4 kissing-loop reporter; higher = weaker reporter binding
Details: Eterna round: R107
Description: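 RNA-MaP round R107: designed RNA switches with theophylline, tryptophan, arginine or FMN aptamers are transcribed on-chip within common flanks. They are titrated with a labelled K4 kissing-loop RNA reporter in RNA-MaP buffer (100 mM Tris pH 7.5, 80 mM KCl, 4 mM MgCl2), without ligand or with the indicated ligand. Median apparent KD per design.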

[1] = input ligand: theophylline 20 uM
[2] = input ligand: tryptophan 2.4 mM
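Also: bound reporter read as fluorescence of individual clusters on recovered sequencing chips by microscopy, with normalized cluster intensities fitted with a binding model.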

Row | Sequence | apparent KD of K4 kissing-loop reporter (input ligand: FMN 200 uM) [nM] | apparent KD of K4 kissing-loop reporter (input ligand: arginine 13.2 mM) [nM] | apparent KD of K4 kissing-loop reporter (input ligand: none) [nM] | apparent KD of K4 kissing-loop reporter [1] [nM] | apparent KD of K4 kissing-loop reporter [2] [nM]
1 | AAAAGCCUACAGGAUACCAGCCGAAUACUAAAAGGCUGGAGUGAUGUUCCAGCUUGCCGCGGCCCUUGGCAGCCUAGCUGGGUGA [Soatriti] | 248 | 258 | 507 | 341 | 286
2 | GCAUCGAUGGCAGGAUAUAGGUUCGUGGAGUGAUGUUCCAUAGCCCGAGUGAUGUUCGUUAUCCGCCUAGAAGGGCCGUGGAUGC [whbob_Ex_FMNB__2th215] | 263 | 210 | 297 | 221 | 244
3 | AAAGAGUCACUCGAAGCUAUCGAAGAUAGGCGAGGACCGGUACGGCCGCCACUCGGAGUGAUGUUCCGAAGACUGUAAAAUAAAA [MatMod 12 - Jieux - Exclusion - Tryptophan A] | 208 | 240 | 206 | 170 | 295
4 | GGCAGUGAUGUUGCCAGUGGCAGAUGCGAAGGAGCGCGGUGAGACGCAGGUAGGUCGCGCAUUGAAAUUGCUGUCACUAAAAUGC [#1] | 261 | 274 | 290 | 320 | 238
5 | GGCGAAUAAAAUCGCCUAGAGAGAAAGGAUACCAGCACCCGGCGGUGCCCUUGGCAGCCUAGCCCAGUGAUGUUGGGUCCUCUAA [Biaveinbe] | 263 | 121 | 140 | 345 | 206
6 | AAGUCAUAGGCAGGAUAUGCAUUGUAAUAAGGCAAUAUAUACGUAUAGAGUGAUGUUUUGUACCAGGCAGAAGGGCUACAUCAGU [FMN B Excl V10 (+5A/U)] | 674 | 383 | 652 | 491 | 416
7 | AAGUGUGUGGCGGCCGCCACUAGAAUCCAGUGAUGUUGGAGAUAUCACGUAAGUGAUAUCCAACAUAGGACCGGGCCAUAUAGAA [Same State - Tryptophan B (Freestyle 12)] | 142 | 111 | 80.3 | 210 | 95.5
8 | UCUGGUAUAUCUGAUACCAGAGUAUAGUAUCAAUUGCAUAUGGAGUGAUGUUCCAUACAACUCCCUUGGCAGCAGAUCUAUCUCU [Same State Theophylline B GF 24] | 219 | 249 | 246 | 286 | 195
9 | GGGUUGAACUGAAGGAGCGAGAAAUAGAAAGUAAGAAGAUAAGCUAGUGAUGUUAGAAAUUCUCAGGUAGGUCGCAGUAAGAAUU [V3] | 338 | 325 | 354 | 280 | 258
10 | ACGUGCACUAGUGAUGUUAGAAAAUACGAAGGAGCGGGCGAAAGCCCAGGUAGGUCGCGUAAUAGCACGAGCCACGAAAGUGGCA | 254 | 271 | 325 | 447 | 248
11 | CCGCUACCCUCAGGAUAUUAAAUAUUAGUGAUGUUAAUAAACCGAUGGCGAAAGCCAUCGGUAUGUUGAGAAGGGAGGGUAGCGG [whbob_SS_FMNB__2th196] | 145 | 593 | 766 | 549 | 635
12 | UAUUCUUAUCUUAGUUGAUUUCUAAUUAAACGAGGACCGGUACGGCCGCCACUCGGUUAUGAGUGAUGUUCAUGGAAUUACAUAA [JR_SSTryptoA_Sub020] | 275 | 481 | 413 | 548 | 143
13 | ACACUUUACGUAGGAUAUGCGACGAGUGAUGUUCGUCAGGCGGCUUUAGCUUAAUCAGGCCGCCUAGCAGAAGGACGGGCAGUGU [Zaretiesre] | 142 | 149 | 199 | 195 | 181
14 | UUGUUUGGUUGAGAGGUUGGGCGAGAUGAUACCAGUAGAGAAGAGUACCCUUGGCAGCAUAGGAAAGAUAUAGUGAUGUUGUAUA [SSTheophA.Q] | 354 | 313 | 357 | 165 | 309
15 | AUUCACCUGUCGGCCGCCACUGCGUUAGCAGUAUCGGGCAGAAACUUCGCAGUGAUGUUGCGACUCAGGACCGGGACGUUGAGGA [theeternabot_exclusion_KL_Trp_B_29] | 445 | 406 | 468 | 454 | 504
16 | GGAUAGGAUAGAGGAUAUGGAUUAGGCAAGAAUAACUUGUCUUGUAAAUCCAUGAGGAGUGAUGUUCCAGAAGGCUGUCCUAUCG [MatMod 6 - Jieux - Exclusion - FMN B] | 233 | 113 | 116 | 117 | 94.3
17 | UUGUUUUACUGAAGGAGCGGCAAUUGAUACGUAGAUAUAGUGAUGUUAUAUAAGAUAGAGAGCCAGGUAGGUCGCAGAUUUUUUU [ExArgB.V] | 164 | 157 | 144 | 185 | 118
18 | AAUAAGCGCCGAAGGAGCGGCCUCCGAGUGAUGUUCGGUGAGAUGCCAGUGAUGUUGGCCGGCCAGGUAGGUCGCGGCAAAGCUU [Same State Arginine B GF 29] | 154 | 140 | 161 | 131 | 128
19 | GGGAGUAGUGCGGCCGCCACUGAGAAAGAAGAAGAAUAUAGUGAUGUUAUGUGGGAAAGGAAGAACAGGACCGGGCAUUAGAUUU [#21 K4 Tryptophan B Same State] | 821 | 450 | 488 | 441 | 499
20 | GGCUUAUUCUAUGAUACCAGCGUCACAUCGGGACUGCGCACGCAGCAGGCGAGUGAUGUUCGCCCUUGGCAGCAUCUCGGCGACU [theeternabot_exclusion_KL_Theo_B_26] | 373 | 230 | 249 | 250 | 232
21 | GAUAUAGUGAUGUUAUAUACUGAUAGACAACGAGGACCGGUACGGCCGCCACUCGAGAGGGUGAAAAUAAUGAUAAAAUAAUAAU [ExyTryA#1] | 343 | 310 | 359 | 298 | 265
